# In paper PMC10889005:
# Target: KPNA4 (UniProt O00629)
# Assay: pull-down/IP from co-transfected cells
# Details: reference: IRF3 wild type; sites S97
substance,measurement,value
IRF3 (from UniProt Q14653) IRF3 S97A,binding against the reference,stronger
